Drawing on PMC10202384, this text covers Kd and stoichiometry N for one substance.

The test addresses recombinant monomeric RBD of the SARS-CoV-2 spike protein, tag cleaved, labelled with Alexa Fluor 488 (SARS-CoV-2) (UniProt P0DTC2). Put plainly: fluorescence polarisation. In general terms: In fluorescence polarisation assays a small probe gives low polarisation when free and higher when bound to something large.

With “platelet-derived purified human αIIbβ3 protein (from UniProt P05106 27-788) (complex)”, the Kd – broadly, a measure of binding affinity in units of concentration – was 96 nM and the stoichiometry N (commonly a count of units in the complex or per binding partner) was 1.3.
